Experimental findings from publication PMC3602351 are described below.

This assay addresses human ALDH2 T244A substituted enzyme (human) (UniProt P05091). The assay is described as follows: crystal structure.

In turn, “human ALDH2 T244A substituted enzyme (from UniProt P05091 18-517)” displayed a stoichiometry N of 4.
